This assay deals with T1, FLAG-ubiquitin, recombinant (UniProt P0CG47 1-76).
T1 construct: ubiquitin, the cut product of a ubiquitin precursor; source: bought: Boston Biochem
Nature of the assay: SPR; Biacore 3000, 25°C; FLAG-ubiquitin immobilised on CM-5 chip by amine cross-linking; increasing amounts of GST-ING1 injected; blank reference subtracted; three experiments; steady-state affinity and kinetic data. As to conditions: both partners purified. A general note: SPR reads the build-up and loss of mass on a sensor chip optically.

B1: GST-ING1b, full length, recombinant (natural protein, human, UniProt Q9UK53-2 1-279, looked up)
chain: MLSPANGEQLHLVNYVEDYLDSIESLPFDLQRNVSLMREIDAKYQEILKELDECYERFSRETDGAQKRRMLHCVQRALIRSQELGDEKIQIVSQMVELVENRTRQVDSHVELFEAQQELGDTAGNSGKAGADRPKGEAAAQADKPNSKRSRRQRNNENRENASSNHDHDDGASGTPKEKKAKTSKKKKRSKAKAEREASPADLPIDPNEPTYCLCNQVSYGEMIGCDNDECPIEWFHFSCVGLNHKPKGKWYCPKCRGENEKTMDKALEKSKKERAYNR
notes: ING1 isoform p33ING1b, full length
Take B1: the equilibrium dissociation constant (Kd) (in general, the constant that tells how readily two partners part at equilibrium) is roughly 100 nM.
